This note sets out measurements from patent US20220332804A1 (CSL INNOVATION, published 2022).

Residue numbers refer to the chain shown, from its start.

What all share (test): SPR, antibody captured, C2 as analyte;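 further: biacore at 37 °C, anti-C2 mAbs held by immobilised goat anti-human IgG, C2 alanine or serine mutants injected, double-referenced sensorgrams fitted to a 1:1 kinetic or steady-state model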
(Surface plasmon resonance follows binding to a sensor surface in real time, without labels.)

Assay [1] addresses T1, human C2 H331A (human, UniProt P06681 21-752).
T1 sequence: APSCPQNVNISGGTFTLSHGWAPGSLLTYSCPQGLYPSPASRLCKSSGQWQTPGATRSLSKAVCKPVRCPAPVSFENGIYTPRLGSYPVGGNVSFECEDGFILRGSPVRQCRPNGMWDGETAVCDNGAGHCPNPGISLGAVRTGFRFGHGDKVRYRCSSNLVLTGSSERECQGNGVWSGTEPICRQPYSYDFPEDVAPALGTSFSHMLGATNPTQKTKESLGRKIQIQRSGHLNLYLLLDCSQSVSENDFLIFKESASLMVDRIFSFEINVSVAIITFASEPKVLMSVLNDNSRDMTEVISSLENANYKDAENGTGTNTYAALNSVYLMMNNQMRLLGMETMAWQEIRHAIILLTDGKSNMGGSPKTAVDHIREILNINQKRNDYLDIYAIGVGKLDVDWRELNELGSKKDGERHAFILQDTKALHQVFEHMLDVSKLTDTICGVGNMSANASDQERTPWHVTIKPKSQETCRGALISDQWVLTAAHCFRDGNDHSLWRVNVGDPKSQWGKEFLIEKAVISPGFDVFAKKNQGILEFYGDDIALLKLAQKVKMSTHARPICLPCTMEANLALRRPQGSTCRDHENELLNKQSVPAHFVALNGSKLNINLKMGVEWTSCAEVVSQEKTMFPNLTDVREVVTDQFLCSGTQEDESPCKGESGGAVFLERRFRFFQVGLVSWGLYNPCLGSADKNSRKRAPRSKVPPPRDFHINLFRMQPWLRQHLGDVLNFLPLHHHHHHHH

The target of assay [2] is T2, human C2 V455A (human, UniProt P06681 21-752).
T2 sequence: T1 sequence with A311H, V435A

Assay [3] concerns the target T3, human C2 V448A (human, UniProt P06681 21-752).
T3 sequence: T1 sequence with A311H, V428A

Assay [4] deals with T4, human C2 T442A (human, UniProt P06681 21-752).
T4 sequence: T1 sequence with A311H, T422A

B1: RF16-242 (antibody, human IgG4 S228P, lambda, V domains shown)
VH: EVQLLQSGAEVKKPGESLKISCKGSGYSFTSYWIGWVRQMPGKGLEWMGIIYPGDSDTRYSPSFQGQVTISADKSISTAYLQWSSLKASDTAMYYCARRGHYGDYFDYWGQGTLVTVSS
VL: SYELTQPPSVSVSPGQTARITCSGDALPKKYAYWYHQKSGQAPVLVIYEDRRRPSEIPERFSGSSSGTMATLTITGAQVEDEGVYFCYSRDRAGNQRVFGGGTQLTVLG
notes: pH-dependent anti-C2 antibody from a phage display library
For orientation: Kd means the concentration at which binding is half-saturated. The low end stands for tighter binding, the high end for weaker binding. Take B1: the Kd turned out to be 191 nM in assay [1], 5.9 nM in assay [2], 5 nM in assay [3] and 18 nM in assay [4].
